US20220031650A1 (PDS BIOTECHNOLOGY, published 2022)

Tests used:
[1] = biological target: T1, H-2K^b molecules on RMA-S cells (mouse, UniProt P01901 22-369; P01887 21-119); assay: RMA-S MHC class I stabilisation assay, flow cytometry with anti-H-2K^b antibody
T1 construct: whole, on cells
T1 sequence (MHC heavy): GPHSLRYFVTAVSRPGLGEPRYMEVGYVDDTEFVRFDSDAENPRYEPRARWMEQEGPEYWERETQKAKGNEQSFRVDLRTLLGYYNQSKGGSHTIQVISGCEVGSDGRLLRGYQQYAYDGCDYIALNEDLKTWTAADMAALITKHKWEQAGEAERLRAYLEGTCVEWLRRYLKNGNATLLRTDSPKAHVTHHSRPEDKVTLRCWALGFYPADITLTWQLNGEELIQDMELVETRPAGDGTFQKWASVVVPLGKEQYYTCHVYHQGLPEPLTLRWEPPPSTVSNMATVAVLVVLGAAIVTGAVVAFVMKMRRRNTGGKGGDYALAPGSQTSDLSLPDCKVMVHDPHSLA
T1 sequence: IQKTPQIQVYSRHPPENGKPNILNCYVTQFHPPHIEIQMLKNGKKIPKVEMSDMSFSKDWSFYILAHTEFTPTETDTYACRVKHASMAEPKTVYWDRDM

[2] = biological target: T2, H-2D^b molecules on RMA-S cells (mouse, UniProt P01899 25-362; P01887 21-119); assay: RMA-S MHC class I stabilisation assay, 10 µM peptide, flow cytometry with anti-H-2D^b antibody, medium control
T2 construct: whole, on cells; also called MHC class I
T2 sequence (MHC heavy, looked up): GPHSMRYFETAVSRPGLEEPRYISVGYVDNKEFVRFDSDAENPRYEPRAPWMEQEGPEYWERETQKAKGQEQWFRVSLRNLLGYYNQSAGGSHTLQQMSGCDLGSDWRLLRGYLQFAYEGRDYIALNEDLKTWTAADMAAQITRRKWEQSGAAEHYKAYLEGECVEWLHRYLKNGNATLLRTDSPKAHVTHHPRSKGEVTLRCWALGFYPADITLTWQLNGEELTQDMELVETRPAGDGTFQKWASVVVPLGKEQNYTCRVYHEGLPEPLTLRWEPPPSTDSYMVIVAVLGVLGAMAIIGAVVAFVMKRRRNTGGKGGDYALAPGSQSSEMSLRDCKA
T2 sequence (looked up): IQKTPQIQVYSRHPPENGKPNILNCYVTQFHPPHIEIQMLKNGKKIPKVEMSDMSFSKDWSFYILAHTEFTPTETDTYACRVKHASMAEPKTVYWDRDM
Experimental: We evaluated the MHC class I binding affinity of native and KSS-elongated E7 peptides. RMA-S cells, a mouse lymphoma cell line at a concentration of 5×10⁵ cells/ml were incubated overnight at 27° C. with native E7 or KSS-E7 peptide (10 μM). Cells incubated with medium were used as a control. Cells were then incubated for 2 h at 37° C. After washes, cells were stained with fluorescently conjugated monoclonal antibodies against H-2D^b or H-2K^b molecules on the cell surface prior to flow cytometry analysis.

B1: KSS-E7 peptide (KSS (lysine-serine-serine)-elongated E7 peptide without the lipid chain) (peptide)
peptide: KSSRAHYNIVTF
notes: Not lipidated; added at 10 uM to RMA-S cells; also called KSS-elongated E7 peptide
Question: Does B1 bind [1]?
Answer: Result: no binding (tested: 10 µM)

Question: And the “fold increase in the mean fluorescence (H-2D^b on RMA-S cells)” value [2]?
Answer: The value was 8 fold.

B2: native E7 peptide (HPV 16 E7 protein, amino acid 49-57, H-2D^b restricted CTL epitope) (peptide)
peptide: RAHYNIVTF
notes: Synthetic free peptide, added at 10 uM to RMA-S cells; also called E7 antigen
Question: Which results are given for B2?
Answer: binding result [1]: no binding (tested: 10 µM); fold up-regulation of H-2D^b molecules on RMA-S cells compared to the control [2]: 4 fold
